Results: paper PMC3377380

Molecular target: GST-Obsc_(6316–6345) (Rattus norvegicus)
Experiment: SPR

- fold slower dissociation than wild type: 3 times
Substance: sAnk1-I102F (MBP fusion) (domain or fragment)
